Experimental data: patent US20040087777A1

Legend:
Assay in all cases: rNET
… analog, Residue 6 = K = target: … analog, Residue 6 = K
… analog, Residue 4 = K = target: … analog, Residue 4 = K
… analog, Residue 4 = S = target: … analog, Residue 4 = S
… analog, Residue 7 = C = target: … analog, Residue 7 = C
… analog, Residue 4 = L = target: … analog, Residue 4 = L
… analog, Residue 7 = G = target: … analog, Residue 7 = G
… analog, Residue 6 = E = target: … analog, Residue 6 = E
… analog, Residue 7 = M = target: … analog, Residue 7 = M
… analog, Residue 5 = P = target: … analog, Residue 5 = P
… analog, Residue 7 = T = target: … analog, Residue 7 = T
… analog, Residue 4 = V = target: … analog, Residue 4 = V
… analog, Residue 5 = I = target: … analog, Residue 5 = I
… analog, Residue 5 = E = target: … analog, Residue 5 = E
… analog, Residue 7 = P = target: … analog, Residue 7 = P
… analog, Residue 5 = S = target: … analog, Residue 5 = S
… analog, Residue 5 = D = target: … analog, Residue 5 = D
… analog, Residue 6 = R = target: … analog, Residue 6 = R
… analog, Residue 6 = F = target: … analog, Residue 6 = F
… analog, Residue 6 = I = target: … analog, Residue 6 = I
… analog, Residue 7 = K = target: … analog, Residue 7 = K
… analog, Residue 6 = Q = target: … analog, Residue 6 = Q
… analog, Residue 4 = T = target: … analog, Residue 4 = T
… analog, Residue 5 = L = target: … analog, Residue 5 = L
… analog, Residue 5 = T = target: … analog, Residue 5 = T
… analog, Residue 6 = A = target: … analog, Residue 6 = A
… analog, Residue 5 = V = target: … analog, Residue 5 = V
… analog, Residue 6 = Y = target: … analog, Residue 6 = Y
… analog, Residue 4 = P = target: … analog, Residue 4 = P
… analog, Residue 6 = P = target: … analog, Residue 6 = P
… analog, Residue 4 = Y = target: … analog, Residue 4 = Y
… analog, Residue 5 = Y = target: … analog, Residue 5 = Y
… analog, Residue 4 = I = target: … analog, Residue 4 = I
… analog, Residue 6 = D = target: … analog, Residue 6 = D
… analog, Residue 7 = I = target: … analog, Residue 7 = I
… analog, Residue 5 = M = target: … analog, Residue 5 = M
… analog, Residue 6 = M = target: … analog, Residue 6 = M
… analog, Residue 4 = G = target: … analog, Residue 4 = G
… analog, Residue 4 = D = target: … analog, Residue 4 = D
… analog, Residue 6 = N = target: … analog, Residue 6 = N
… analog, Residue 6 = W = target: … analog, Residue 6 = W
… analog, Residue 6 = C = target: … analog, Residue 6 = C
… analog, Residue 7 = W = target: … analog, Residue 7 = W
… analog, Residue 7 = V = target: … analog, Residue 7 = V
… analog, Residue 4 = R = target: … analog, Residue 4 = R
… analog, Residue 6 = L = target: … analog, Residue 6 = L
… analog, Residue 5 = N = target: … analog, Residue 5 = N
… analog, Residue 4 = E = target: … analog, Residue 4 = E
… analog, Residue 4 = Q = target: … analog, Residue 4 = Q
… analog, Residue 6 = V = target: … analog, Residue 6 = V
… analog, Residue 5 = A = target: … analog, Residue 5 = A
… analog, Residue 7 = Q = target: … analog, Residue 7 = Q
… analog, Residue 7 = Y = target: … analog, Residue 7 = Y
… analog, Residue 5 = W = target: … analog, Residue 5 = W
… analog, Residue 7 = A = target: … analog, Residue 7 = A
… analog, Residue 4 = M = target: … analog, Residue 4 = M
… analog, Residue 7 = F = target: … analog, Residue 7 = F
… analog, Residue 5 = F = target: … analog, Residue 5 = F
… analog, Residue 5 = C = target: … analog, Residue 5 = C
… analog, Residue 4 = C = target: … analog, Residue 4 = C
… analog, Residue 7 = S = target: … analog, Residue 7 = S
… analog, Residue 7 = R = target: … analog, Residue 7 = R
… analog, Residue 7 = L = target: … analog, Residue 7 = L
… analog, Residue 4 = A = target: … analog, Residue 4 = A
… analog, Residue 4 = W = target: … analog, Residue 4 = W
… analog, Residue 5 = Q = target: … analog, Residue 5 = Q
… analog, Residue 6 = G = target: … analog, Residue 6 = G
… analog, Residue 4 = N = target: … analog, Residue 4 = N

B1: murine monoclonal antibody 3D6 (antibody, mouse IgG2b, V domains shown)
VL: not shown
VH: EVKLVESGGGLVKPGASLKLSCAASGFTFSNYGMSWVRQNSDKRLEWVASIRSGGGRTYYSDNVKGRFTISRENAKNTLYLQMSSLKSEDTALYYCVRYDHYSGSSDYWGQGTTVTVSS
OD (… analog, Residue 6 = K): 0.585 OD
OD (… analog, Residue 4 = K): 0.015 OD
OD (… analog, Residue 4 = S): 0.026 OD
OD (… analog, Residue 7 = C): 0.559 OD
OD (… analog, Residue 4 = L): 0.559 OD
OD (… analog, Residue 7 = G): 0.562 OD
OD (… analog, Residue 6 = E): 0.579 OD
OD (… analog, Residue 7 = M): 0.562 OD
OD (… analog, Residue 5 = P): 0.093 OD
OD (… analog, Residue 7 = T): 0.56 OD
OD (… analog, Residue 4 = V): 0.213 OD
OD (… analog, Residue 5 = I): 0.51 OD
OD (… analog, Residue 5 = E): 0.115 OD
OD (… analog, Residue 7 = P): 0.582 OD
OD (… analog, Residue 5 = S): 0.487 OD
OD (… analog, Residue 5 = D): 0.08 OD
OD (… analog, Residue 6 = R): 0.576 OD
OD (… analog, Residue 6 = F): 0.586 OD
OD (… analog, Residue 6 = I): 0.602 OD
OD (… analog, Residue 7 = K): 0.565 OD
OD (… analog, Residue 6 = Q): 0.57 OD
OD (… analog, Residue 4 = T): 0.016 OD
OD (… analog, Residue 5 = L): 0.517 OD
OD (… analog, Residue 5 = T): 0.53 OD
OD (… analog, Residue 6 = A): 0.587 OD
OD (… analog, Residue 5 = V): 0.493 OD
OD (… analog, Residue 6 = Y): 0.595 OD
OD (… analog, Residue 4 = P): 0.03 OD
OD (… analog, Residue 6 = P): 0.587 OD
OD (… analog, Residue 4 = Y): 0.529 OD
OD (… analog, Residue 5 = Y): 0.278 OD
OD (… analog, Residue 4 = I): 0.119 OD
OD (… analog, Residue 6 = D): 0.584 OD
OD (… analog, Residue 7 = I): 0.552 OD
OD (… analog, Residue 5 = M): 0.418 OD
OD (… analog, Residue 6 = M): 0.583 OD
OD (… analog, Residue 4 = G): 0.016 OD
OD (… analog, Residue 4 = D): 0.017 OD
OD (… analog, Residue 6 = N): 0.58 OD
OD (… analog, Residue 6 = W): 0.576 OD
OD (… analog, Residue 6 = C): 0.585 OD
OD (… analog, Residue 7 = W): 0.547 OD
OD (… analog, Residue 7 = V): 0.563 OD
OD (… analog, Residue 4 = R): 0.016 OD
OD (… analog, Residue 6 = L): 0.584 OD
OD (… analog, Residue 5 = N): 0.476 OD
OD (… analog, Residue 4 = E): 0.016 OD
OD (… analog, Residue 4 = Q): 0.065 OD
OD (… analog, Residue 6 = V): 0.588 OD
OD (… analog, Residue 5 = A): 0.275 OD
OD (… analog, Residue 7 = Q): 0.563 OD
OD (… analog, Residue 7 = Y): 0.56 OD
OD (… analog, Residue 5 = W): 0.393 OD
OD (… analog, Residue 7 = A): 0.58 OD
OD (… analog, Residue 4 = M): 0.549 OD
OD (… analog, Residue 7 = F): 0.546 OD
OD (… analog, Residue 5 = F): 0.439 OD
OD (… analog, Residue 5 = C): 0.359 OD
OD (… analog, Residue 4 = C): 0.02 OD
OD (… analog, Residue 7 = S): 0.563 OD
OD (… analog, Residue 7 = R): 0.551 OD
OD (… analog, Residue 7 = L): 0.566 OD
OD (… analog, Residue 4 = A): 0.016 OD
OD (… analog, Residue 4 = W): 0.291 OD
OD (… analog, Residue 5 = Q): 0.388 OD
OD (… analog, Residue 6 = G): 0.592 OD
OD (… analog, Residue 4 = N): 0.085 OD
